Experimental data reported in publication PMC2199005.

Columns and labels:
[1] = molecular target: recombinant streptococcal pyrogenic exotoxin C (SPE-C) (Streptococcus pyogenes); experiment: SEC
[2] = molecular target: recombinant streptococcal pyrogenic exotoxin C (SPE-C) (Streptococcus pyogenes); experiment: nondenaturing SDS-PAGE

## recombinant streptococcal pyrogenic exotoxin C (SPE-C) (natural protein)
[1]
  percent dissociated to the monomer form: 50%
  stoichiometry N: 2
[2]
  percent of SPE-C in dimer form: > 60%
